The supplement of paper PMC7877785
± gives the uncertainty stated by the source.

Test: self-splicing fitness, log relative to wild type (ln ratio); higher = more splicing; Tetrahymena group I intron in knt gene, E. coli kanamycin selection, DiMSum; sequences stand for … in CUCUCU…GGAGGGAAAAGUUAUCAGGCAUGCACCUGGUAGCUAGUCUUUAAACCAAUAGAUUGCAUCGGUUUAAAAGGCAAGACCGUCAAAUUGCGGGAAAGGGGUCAACAGCCGUUCAGUACCAAGUCUCAGGGGAAACUUUGAGAUGGCCUUGCAAAGGGUAUGGUAAUAAGCUGACGGACAUGGUCCUAACCACGCAGCCAAGUCCUAAGUCAACAGAUCUUCUGUUGAUAUGGAUGCAGUUCACAGACUAAAUGUCGGUCGGGGAAGAUGUAUUCUUCUCAUAAGAUAUAGUCGGACCUCUCCUUAAUGGGAGCUAGCGGAUGAAGUGAUGCAACACUGGAGCCGCUGGGAACUAAUUUGUAUGCGAAAGUAUAUUGAUUAGUUUUGGAGUACUCGUGGUCG
Summary of the method: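 Library with all eight P1ex-region intron nucleotides randomised, intron inside the knt kanamycin-resistance gene on pET-22b(+), in E. coli BL21(DE3). Cells grew overnight at 37°C or 30°C on LB agar with or without 25 μg/mL kanamycin (plus 100 μg/mL carbenicillin, 50 μM IPTG, 0.2% rhamnose), in six replicate transformations. Pooled colonies were amplicon-sequenced on Illumina HiSeq 2500. DiMSum fitness is the error-weighted combination of wild-type-normalised replicate fold changes, kanamycin versus none.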

Row | Sequence | self-splicing fitness (ln) (30 °C) | self-splicing fitness (ln) (37 °C)
1 | AGCGAGCAAUAUUACGCCUA | -1.67 ± 0.18 | -1.89 ± 0.2
2 | UCGGAGCAAUAUUACGUAAC | -3.51 ± 0.48 | 
3 | CCACAGCAAUAUUACGUUUG | -1.7 ± 0.054 | -0.24 ± 0.069
4 | AAAAAGCAAUAUUACGGCUA | -0.166 ± 0.089 | 0.116 ± 0.11
5 | AGACAGCAAUAUUACGUACC | -0.256 ± 0.11 | -0.253 ± 0.14
6 | CCGUAGCAAUAUUACGCUCG | -1.1 ± 0.2 | -0.457 ± 0.23
7 | GUCCAGCAAUAUUACGAGCU |  | -1.96 ± 0.31
8 | GCAGAGCAAUAUUACGCGCA | -2.97 ± 0.24 | -1.61 ± 0.17
9 | GCACAGCAAUAUUACGAUAC | -1.21 ± 0.074 | -0.488 ± 0.084
10 | ACGUAGCAAUAUUACGAAUG | -2.89 ± 0.13 | -1.53 ± 0.12
11 | AAGUAGCAAUAUUACGUGCU | -1.29 ± 0.08 | -0.982 ± 0.1
12 | CUAUAGCAAUAUUACGGUGG | -3.27 ± 0.24 | -2.22 ± 0.25
13 | CCCCAGCAAUAUUACGUGAA | -4.42 ± 0.13 | -2.44 ± 0.099
14 | CCCAAGCAAUAUUACGCUGA | -3.51 ± 0.25 | -3.69 ± 0.34
15 | GGCAAGCAAUAUUACGCGGG | -3.73 ± 0.21 | -3.23 ± 0.26
16 | AUCCAGCAAUAUUACGAUAG | -2.71 ± 0.25 | -2.84 ± 0.31
17 | GGUAAGCAAUAUUACGGUCC | -1.57 ± 0.34 | 
18 | AUAAAGCAAUAUUACGAGGA | -3.28 ± 0.23 | -1.74 ± 0.19
19 | UGCAAGCAAUAUUACGGACU | -0.763 ± 0.077 | 0.286 ± 0.093
20 | GUACAGCAAUAUUACGACAG | -3.31 ± 0.24 | -1.94 ± 0.21

Row | Sequence | self-splicing fitness (ln) (30 °C) | self-splicing fitness (ln) (37 °C)
21 | UCAGAGCAAUAUUACGAAUU |  | -2.24 ± 0.37
22 | CAUGAGCAAUAUUACGUCCA | -2.74 ± 0.33 | -2.28 ± 0.34
23 | AGCUAGCAAUAUUACGAGGU | -2.73 ± 0.14 | -1.31 ± 0.13
24 | AUCAAGCAAUAUUACGGCAC | -1.67 ± 0.1 | -0.0454 ± 0.16
25 | GGCAAGCAAUAUUACGAGAG | -3.94 ± 0.24 | -2.26 ± 0.15
26 | CUGCAGCAAUAUUACGUUAA | -3.5 ± 0.24 | -3.02 ± 0.27
27 | UAUCAGCAAUAUUACGUUUC | -2.67 ± 0.21 | -1.73 ± 0.22
28 | ACGCAGCAAUAUUACGGAUC | -1.86 ± 0.093 | -0.813 ± 0.13
29 | AUCGAGCAAUAUUACGGCUU | -3.88 ± 0.3 | -2.58 ± 0.29
30 | UACUAGCAAUAUUACGGCGC | -1.6 ± 0.28 | -1.55 ± 0.31
31 | CGCUAGCAAUAUUACGAGGC | -3.54 ± 0.2 | -2.95 ± 0.23
32 | UUACAGCAAUAUUACGGCUA | -0.676 ± 0.091 | 0.443 ± 0.11
33 | UGGGAGCAAUAUUACGGGUA | -2.68 ± 0.32 | -2.33 ± 0.37
34 | GUCCAGCAAUAUUACGCUUU | -0.441 ± 0.06 | 0.678 ± 0.076
35 | ACAAAGCAAUAUUACGGAAC | -3.33 ± 0.13 | -2.43 ± 0.15
36 | CGUGAGCAAUAUUACGGCUA | -1.68 ± 0.14 | -1.12 ± 0.14
37 | GCGAAGCAAUAUUACGACUA | 0.115 ± 0.22 | -1.94 ± 0.2
38 | ACAUAGCAAUAUUACGUUGC | -4.02 ± 0.33 | -2 ± 0.28
39 | GGAUAGCAAUAUUACGUUAU | -4.06 ± 0.24 | -3.28 ± 0.23
